Data on 18 molecules can be found in publication PMC6908968 (Cell, 2019).

The target of experiment [1] is EBOV GP ectodomain residues 1-636 (GPec) (Zaire ebolavirus, strain  …, UniProt Q05320).
Experiment [2] has as its target T1, thermolysin-cleaved EBOV GP on Jurkat-GP cells (cleaved GP) (Zaire ebolavirus, Makona (GP1 core …, strain)).
T1 chain 1: not shown
T1 chain 2: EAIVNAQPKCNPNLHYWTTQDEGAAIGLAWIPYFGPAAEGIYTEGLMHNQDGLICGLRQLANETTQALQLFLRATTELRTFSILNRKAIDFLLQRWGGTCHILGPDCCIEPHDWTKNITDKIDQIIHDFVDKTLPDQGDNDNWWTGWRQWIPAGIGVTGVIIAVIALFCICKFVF

B1: 5.6.c3412 (antibody, V domains shown)
VH: QIQLVESGGGVVQPVRSLRLTCAASGFTFSQYGMHWVRQAPGKGLEWVAVISYDGTQKYYSDSVKGRFTISRDNAKNTLSLQMNGLRAEDTAVYYCAKGFLERNFDLWSGSYSDSGWRGPYYGMDFWGQGTTVIVSS
VL: QTVVTQEPSFSVSPGGTVTITCALSSGSVSASLYPSWYQQTPGQAPRTLIYSTNTRSSGVPDRFSGSILGNKAALTITGAQADDESDYYCVLFMSSGIYVFGTGTKVTVL
For B1, the binding result in experiment [1] and in experiment [2] was “binds” throughout.

B2: 5.6.c3479 (antibody, V domains shown)
VH: QVHLVESGGGLVKPGGSLRLSCSVSGFAFSDYYMTWIRQAPGKGLEWVSYISGDGGSIYYADSVKGRFTISRDNAKKSLYLQLNSLRADDTAVYYCARDRCDRDQLLCYYYYGMDVWGQGTTVTVSS
VL: QSVLTQPPSVSAAPGQKVTISCSGSSSNIGNNYVSWYQQLPGTAPKLLIYDNNKRPSGIPDRFSGSKSGTSATLDITGLQTGDEADYYCGTWDNSLIAGVFGGGTKLTVL
With B2, the binding result in experiment [1] and in experiment [2] was “binds” each time.

B3: 5.6.c3508 (antibody, V domains shown)
VH: QVQLEQSGAEVKKPGASVKVSCQAAGYTFTSYGISWVRQAPGQGLEWMGWISADNGNTKYAQNLQARVTMTTDTSTSTAYMEVRRLRSDDTAVYYCARDSGDLSSLLYYGMDVWGQGTTVTVSS
VL: DIQLTQSPSFLSASVGDRVTITCRASQGISSYLAWYQQKPGKAPKLLIDAASTLQSGVPSRISGSRSGTEYTLTISSLQPEDFATYYCQQLNNFPFTFGPGTKVDIK
For B3, the binding result in experiment [1] and in experiment [2] was “binds” each time.

B4: 5.6.c4392 (antibody, V domains shown)
VH: QVQLVESGGGVVQPGRSLRLSCAASGFFFRNYGIHWVRQAPGKGLEWVAIISYDESKKYYADSVKGRFTISRDNSKNTLYLQMNSLRAEDTAVYYCAKAHPHSRWFFDSWGQGTLVTVSS
VL: NFVLTQPHSVSDSPGKTVTISCTRSSGSIATDYVQWYQQRPGSAPTLVIYEDNQRPSGVPNRFSGSIDSSSNSASLTISGLETEDEADYYCQSYDPTNLVFGGGTKLTVL
B4: the binding result in experiment [1] and in experiment [2] was “binds” throughout.

B5: 5.6.c3557 (antibody, V domains shown)
VH: QVQLVESGGGVVQPGRSLRLSCAASGFSITNYAMHWVRQAPGRGLEWVALISYDGINQYYADSVKGRFTFSRDNSKNTLYLQMNSLRLDDTAVYYCARDPASPSDIFQDAFDIWGQGTTVIVSS
VL: DIQMTQSPSSLSASVGDRVTITCRASQDISGWLAWYQQKPEKAPRSLIYATSSLQSGVPSRFSGSGSGTDFTLTISSLQPEDFATYYCQQYHSYPLTFGGGTKIQIK
Regarding B5, the binding result in experiment [1] and in experiment [2] was “binds” in each case.

B6: 5.6.c3250 (antibody, V domains shown)
VH: QVQLVESGGGLVKPGGSLRLSCAASGFTFSDYDMSWIRQAPGKGLEWISYISSSGTTIYDADSVKGRFTISRDNAKNSLSLQVNSLRAEDTAVYYCARNVEQIVGATLDYWGQGTLVTVSS
VL: EIVLTQSPATLSLSPGERATLSCRASQSISSFLAWYQQKLGQAPRLLIFDASNRATGIPARFSGSGSGTDFTLTISSLEPEDFAVYYCHHWTFGQGTKVEIK
Turning to B6, the binding result in experiment [1] and in experiment [2] was “binds” each time.

B7: 5.6.c3835 (antibody, V domains shown)
VH: QIQLVQSGAEVKKPGASVKVSCRASGYTFASSGISWVRQAPGQGLEWMGWINVYNGDTNSAHKLQGRVTMTTDTSTSTAYMELRSLRSDDTAVYYCTRDSFCAGSNSCYLWAGYYYYAMDVWGQGTTVTVSP
VL: EIVMTQSPATLSVSPGERATLSCRASQSLSSNLAWYQQKPGQAPRLLIYRASTRATGVPARFSGSGSGTEFTLIISNLQSEDFAVYYCQQFQNWPRTFGQGTKVEIK
Consider B7, for which the binding result in experiment [1] and in experiment [2] was “binds” in each case.

B8: 5.6.c3397 (antibody, V domains shown)
VH: QVQLQESGPGLVKPSETLSLTCTVSGGSISTYYWSWIRQTPGKGLECIGYINYFGSTNYNPSLKSRVTISIDTSKNQFSLKLSSVTAADTAVYYCARHYGVGTYSGGWFDPWGQGTLVTVSS
VL: DIQMTQSPSSLSASVGDRVTVTCRASQRINSFLNWYQQKPGKAPKLLIYAASSLQSGVPSRFSGTGSGTDFTLTISSLQPEDFATYYCQQSYSSPRTFGQGTKVEIR
As for B8, the binding result in experiment [1] and in experiment [2] was “binds” throughout.

B9: 5.6.c3567 (antibody, V domains shown)
VH: EVQLVESGGVVVQPGGSLRLSCAASGFTFDDYTMHWVRQVPGKGPEWVSLITWDGAHTYYADSVKGRFTISRDNSKNSLYLQMNSLRTEDTALYFCARDTAGGAFWSGYPDYWGQGTLVTVSS
VL: DIQMTQSPSSLSASVGDRVTITCRASQSISSYLIWYQQKPGKVPKVLIYGASSLQSGVPSRFSGSGSGTDFTLTISSLQPEDFATYYCQQSHSIPYTFGQGTKLEIK
Consider B9, for which the binding result in experiment [1] and in experiment [2] was “binds” in each case.

B10: 5.6.c4011 (antibody, V domains shown)
VH: QVQLQESGPGVVKPSETLSLTCTVSGASMTGYYWSWIRQPPGKGLEWIGYIFYSGSTNYNPSLKSRATISVDTSKKQFSLKLSSVTAADTAVYYCARSVVVIENDAFDIWGQGTMVTVSS
VL: DIQMTQSPSSLSASVGDRVTITCRASQSTTSYLNWYQQKPGKAPKLLIFAASTLQSGVPSRFSGSGSGTDFTLTISSLQPEDFATYYCQQSYSAPYTFGQGTKLEIK
On to B10, for which the binding result in experiment [1] and in experiment [2] was “binds” each time.

B11: 5.6.c3295 (antibody, V domains shown)
VH: EVQLVESGGDLVQPGGSLRLSCAASGFTVNANYLGWVRQTPGKGLEWVSLIYSGSGSTYYADSVKGRFTLSRDSSKNTLFLHMNSLRPEDTAVYYCARAGGCGGDCYSYYFDYWGRGTLVTVSS
VL: DIQMTQSPSTLSASVGDRVTITCRASQSISRWLAWYQQKPGKAPKLLIYRASSLQNGVPSRFSGSGSGTEFTLTISGLQPDDFGIYYCQEYSSRYTFGQGTQLEIK
As for B11, the binding result in experiment [1] and in experiment [2] was “binds” in each case.

B12: 5.6.c4013 (antibody, V domains shown)
VH: EVQLVESGGDLVQPGGSLRLSCAASGFTVNANYLGWVRQTPGKGLEWVSLIYSGSGSTYYADSVKGRFTLSRDSSKNTLFLHMNSLRPEDTAVYYCARAGGVVVTAIRTTFDYWGRGTLVTVSS
VL: DIQMTQSPSTLSASVGDRVTITCRASQSISRWLAWYQQKPGKAPKLLIYRASSLQNGVPSRFSGSGSGTEFTLTISGLQPDDFGIYYCQEYSSRYTFGQGTQLEIK
Regarding B12, the binding result in experiment [1] and in experiment [2] was “binds” each time.

B13: 5.6.c3362 (antibody, V domains shown)
VH: QLQLQQSGPGLVKPSETLSLTCNVSGGSISSSSTYSWGWIRQPPGKGLEWIGNIYYSGSTYYNPSLKSRVTISVDTSKNQFSLKLSSVTAADTAVYYCARSFRGPTGAFYYYSYAMDVWGRGTTVTVSS
VL: SSELTQDPAVSVALGQTVRITCQGDSLRTYYASWYQQKPGQAPVLVIYGKKNRPSGIPDRFSGSSSGNTASLTITGAQAEDEADYYCNSQDSSGDLVLFGGGTKVTAL
For the molecule B13, the binding result in experiment [1] and in experiment [2] was “binds” throughout.

B14: 5.6.c3236 (antibody, V domains shown)
VH: QVQLLESGPGLVKPSETLSLTCAVSGGSVSSNTHFWSWIRQPPGKGLEWIGYTLSSGSTAYNPSLKSRVSLSVDTSKNHFSLKLTSVTAADTAVYYCAGTVIQGVVSFDWFDPWGQGTLVTVSS
VL: DIQMTQSPSSLSASVGDRVTITCRASQSINSYLNWYQQRPGKAPKLLIYTTSNLQSGVPSRFSGSGSGTDFTLTISSLQPEDFATYYCQQSYSTPLTFGGGTKVEIK
As for B14, the binding result in experiment [1] and in experiment [2] was “binds” each time.

B15: 5.6.c3507 (antibody, V domains shown)
VH: EVQLVESGGGVVQPGGSLRLSCAASGFTFDDYGMHWVRQAPGKGLEWVSFISGDGYSTYYGDSVKGRFTISRDKSKNSLYLQMNSLRTEDTAFYYCAKDGGSTLTTLLYNWFDSWGQGTLVTVSS
VL: DIQMTQSPSSLSASVGDRVTITCRASQSINMYLNWYQQKPGKAPKVLIYGASSLQSGVPSRFSGSGSGTDFTLTISSLQPEDFATYYCQQSYSIPVTFGPGTKVDIK
For the molecule B15, the binding result in experiment [1] and in experiment [2] was “binds” throughout.

B16: 5.6.c3360 (antibody, V domains shown)
VH: EVQVVESGGGLVKPGGSLRLSCAASGFSFSIYSMNWVRQAPGKGLEWVSSITGSSSYTNYAGSVKGRFTISRDNAKNSLYLQMNSLRADDTAVYYCARDGAVDTDIYYYGMDVWGQGTTVTVSS
VL: DIQMTQSPSFVSASIGDRVTITCRASQDISSWLAWYQQKPGKAPTLLIYATSTLQSGVPSRFSGSGSGTDFTLTISSLQPEDFATYYCLQAHSFPRTFGQGTQLEIK
As to B16, the binding result in experiment [1] and in experiment [2] was “binds” throughout.

B17: 5.6.c4395 (antibody, V domains shown)
VH: EVQLVESGGGLVQPGGSLRLSCAASGFTFSTYEMNWVRQAPGKGLEWIAFIDDGGSTINYADSVKGRFTVSRDNAKNSLYLQMNSLRADDTAIYYCARVMTTSFYYYGVDVWGQGTTVTVSS
VL: DIQMTQSPSIVSASVGDRVTITCRASQGVSYWLAWYQQKPGKAPKLLIYAASSLQSGVPSRFSGSGSGTDFTLTISSLQPEDFATYYCQQAHSFPWTFGQGTKVEMK
For B17, the binding result in experiment [1] and in experiment [2] was “binds” in each case.

B18: 5.6.c4471 (antibody, V domains shown)
VH: QIQLVQSGTEVKKPGASVKVSCTASGYTFNNYAITWVRQAPGQGLEWMGWINPYNGDTTYAQKLQGRITMTTGRSTSTAYMDLRSLTSGDTAVYYCARGGAVTDLYFSYVMDVWGQGTTVSVSS
VL: DIQMTQSPSSVSASVGDRVTITCRASQDVSYWLAWFQQKPGKAPELLIHAASSLQSGVPSRFSGSGSGTDFTLTINSLQPEDFATYYCQQSHSFPWTFGQGTKVEIK
Regarding B18, the binding result in experiment [1] and in experiment [2] was “binds” throughout.
